Data as given in patent publication US20240209083A1.

Columns and labels:
[1] = target: human TIM3 (isoform 1), membrane bound (human) (UniProt Q8TDQ0); assay: flow cytometry, lung cancer TILs, CD8+ cells (lower panel), isotype staining
[2] = target: human TIM3 (isoform 1), membrane bound (human) (UniProt Q8TDQ0); assay: flow cytometry, lung cancer TILs, CD4+ cells (upper panel), isotype staining
mouse TIM3 (mouse) = mouse TIM3 (mouse) (UniProt Q8VIM0); assay: binding to activated mouse T cells (method not given)
mouse TIM3 (mouse), sequence (Q8VIM0 20-281): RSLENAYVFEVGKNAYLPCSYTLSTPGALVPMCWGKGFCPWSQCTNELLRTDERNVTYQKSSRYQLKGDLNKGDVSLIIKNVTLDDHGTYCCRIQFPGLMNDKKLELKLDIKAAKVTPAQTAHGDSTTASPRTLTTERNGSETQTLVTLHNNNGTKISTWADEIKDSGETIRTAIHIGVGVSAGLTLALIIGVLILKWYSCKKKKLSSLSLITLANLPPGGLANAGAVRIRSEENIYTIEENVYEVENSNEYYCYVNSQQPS

Substance	% of cells in the quadrant PE isotype positive, APC isotype negative [1] [%]	% of cells in the quadrant PE isotype positive, APC isotype negative [2] [%]	EC50 (mouse TIM3 (mouse)) [nM]	fold weaker EC50 than TIM3.18 binding to human TIM-3 (mouse TIM3 (mouse)) [fold]
Isotype (Comp-PE-A :: Isotype) (antibody)	3.09	2.94		
rat anti-mouse TIM-3 antibody RMT3-23			1.7	17
